Source: PMC10816697

What was measured:
[1] = molecular target: Skeletal muscle actin (rabbit) (UniProt P68135)
[2] = molecular target: Arp2/3 complex purified from sheep brain (sheep)
[3] = molecular target: Arp2/3 complex purified from sheep brain (sheep); experiment: TIRF microscopy of single actin filaments in microfluidics; branch dissociation rate against GMF concentration (up to 1500 nM), 0.3 μM G-actin, branches aged 30 min (ADP-Arp2/3 complex), average 1 pN pulling force; Michaelis-Menten fit, rapid equilibrium between GMF and the branch junction assumed; apparent dissociation constant; 25°C, pH 7.0, 50 mM KCl

branch renucleation ratio of branches made with budding yeast Arp2/3 complex on mammalian actin [1] [%] | branch renucleation ratio against GMF concentration (0.3 and 0.6 μM actin): GMF concentration of the half-maximum effect; with 25 nM GMF and 0.6 μM actin the ratio was reduced more than threefold [2] [nM] | Kd [3] [nM] | Molecule
< 10 | – | – | Arp2/3 complex from Saccharomyces cerevisiae (from UniProt P32381 1-391; P47117 1-449)
– | < 25 | 260 | drosophila GMF (glia maturation factor) (natural protein) MSDNQICDISNEVLEELKKFRFSKSKNNAALILKVDREKQTVVLDEFIDDISVDELQDTLPGHQPRYVIYTYKMVHDDQRISYPMCFIFYTPRDSQIELQMMYACTKSALQREVDLTRVYEIRELDELTEEWLKAKLK
